The subject of series [1] is total spleen cells. The series can be described thus: In vitro proliferation assay of splenocytes (3H-thymidine uptake). Type of series: cell-based, mouse. As for the experimental part: Briefly, freshly recovered splenocytes from 8 week old male Balb/c mice seeded at a concentration of 5×10^4 cells/well were incubated for 24, 48 and 72 h in 5% FCS RPMI-1640 medium. A 16 h ^3H-thymidine pulse at 1 μCi/well was performed before harvesting. ^3H-Thymidine uptake was determined in a beta-plate liquid scintillation counter (LKB-Wallac). All points were done in triplicate and the corresponding standard deviation calculated. For comparison, ^3H-thymidine uptake after 48 h in the presence of ConA (10 μg/ml) and LPS (5 μg/ml) was 32000 c.p.m. and 3500 c.p.m., respectively. T-cell depletion was performed by incubating freshly recovered spleen cells for 30 min at 37° C. in the presence of anti-Thy 1.2 monoclonal antibody (Cedarlane) and rabbit complement (Cedarlane). In order to rule out a possible mitogenic effect due to LPS contamination in samples, proliferation assays were also performed on freshly recovered splenocytes from the LPS non-responder mouse strain C3H/Hej. Same levels of proliferation were verified. Balb/c mice were purchased from Charles River, France. C3H/Hej mice were maintained in our animal facilities.
In vitro proliferation is accomplished using freshly recovered splenocytes from BALB/c mice seeded at a density of 5×10^4 cells/well and incubated for 24, 48 and 72 h with increasing concentrations of total parasite supernatants or recombinant TcPa45 protein or other mitogen (0.07-200 μg/ml) with 0.5 μg/ml of the HPLC fractions, or with the conventionally used mitogens concanavalin A (10 μg/ml) and lipopolysaccharide (5 μg/ml) in 5% FCS in RPMI-1640 complete medium. T-cell depletion is accomplished by incubating freshly recovered spleen cells for 30 min. at 37° C. in the presence of monoclonal antibodies against Thy 1.2 and rabbit complement (Cedarlane, Le Perray en Yvelines, France). Analysis of proliferative activity of total splenocytes (5×10^4 cells/well) in the presence of 50 μg/ml enzymatically active rTcPA45 or other mitogen is also compared with the proliferation obtained using the same amounts of rTcPA45 protein or other mitogen lacking racemase activity (by heating for 10 min. at […] or by long term storage at 4° C.). Inhibition of proliferation is obtained by adding to the splenocyte cultures 50 μg/ml rTcPA45 or other mitogen pre-incubated for 10 min. at 37° C. with 1 mM inhibitor, either specific (pyrrole-2-carboxylic acid) or nonspecific (iodoacetamide or iodoacetate). Competitive assays of proliferative activity by 50 μg/ml rtcPA45 or other mitogen are done by adding increasing concentrations of specific substrates i.e., proline racemase substrates (L- or D-proline) for the mitogen rTcPA45 ranging from 3 mM to 50 mM. Controls include the incubation of splenocytes (5×10^4 cells/well) with substrate alone, i.e., 50 mM L- or D-proline in RPMI medium alone for prline racemase. Cultures are collected after a 16-hour pulse or 1 μCi/well ^3H-thymidine uptake was determined in a beta-plate liquid scintillation counter (LKB-Wallac, Orsay, France). All data points are obtained in triplicate and the corresponding standard deviation is calculated.
5×10^5 naive spleen cells/well (96 well plate) were stimulated in vitro with different doses of rTcPA45 (ranging in FIG. 4b from 0.8 to 200 μg/ml final) for 24, 48 and 72 h, at 37° C., 5% CO2. Cultures were pulsed with ^3H-Thymidine (1 μCi/well) for 16-18 h before harvesting. ^3H-thymidine incorporation was obtained after counting using a beta-plate. Results present arithmetic means of c.p.m. (counts/minute) from 6 wells/dose of rTcPA45 or wells containing medium alone (+/−SD of the means). (FIG. 4b)

In series [2] the target is T1, rTcPA45 proline racemase (Trypanosoma cruzi, UniProt Q4DA80).
T1 construct: made in house; host or cells: E. coli (pET28b(+))
Type of series: biochemical. The method, then: To investigate the genomic organization and transcription of the Tc45 gene, Southern and Northern blot analyses were done. FIG. 4 depicts the results of characterization of rTcPA45 activities. FIG. 4, part a, is an 8% SDS-PAGE gel of rTcPA45 (Coomasie blue staining). Part b depicts the proliferative activity of total splenocytes (5×10^4 cells/well) in the presence of increasing concentrations of rTcPA45 (μg/ml). […] Reaction conditions were: 0.2 M Na-acetate/25 mM β-mercaptoethanol buffer, pH6, rTcPA45 (3 μg/ml), 30 min incubation at 37° C. in 500 μl. The reaction was stopped by incubating for 10 min at 80° C. […] Reactions were carried out for 30 min at 37° C. and stopped for 5 min at 80° C. All reagents and inhibitors were purchased from Sigma. The shift in optical rotation was measured in a Polarimeter 241 MC (Perkin Elmer).
3 μg of rTcPA45 was diluted in 500 μl of buffer (0.2M NaOAc, […] β-mercaptoethanol, pH6.0) containing different concentrations of the substrate (10-80 mM or L- or D-proline). (See FIG. 4c.) The reaction was incubated for 30-60 minutes at 37° C. in a water bath, followed by heat inactivation of the enzyme for 10 minutes at 80° C. Each sample is diluted to 1.5 ml with water and the mixture submitted to measurement of optical rotation using a polarimeter, at 365 nm. A sample without enzyme is used as a control. For optimal pH determination, buffer systems with NaOAc, phosphate, and Tris were used with pH ranging from 4.0-8.2. Curve of temperature was performed between 27° C. to 47° C.
The percent of racemization of different concentrations of L-proline, D-proline, L-hydroxy-proline and D-hydroxy-proline substrates was calculated by incubating a 500-μl mixture of 3 μg TcPA45 and 10-80 mM substrate in 0.2 M sodium acetate and 25 mM β-mercaptoethanol, pH 6, for 30 min at 37° C. The reaction was stopped by incubation for 10 min at 80° C. Water (1 ml) was then added, and the optical rotation was measured in polarimeter 241 MC (Perkin Elmer, Montignyle Bretonneux, France) at a wavelength of 365 nm, in a cell with a path length of 10 cm. The percent inhibition of racemization of 80 mM L-proline was determined in the presence of different concentrations of several specific and nonspecific inhibitors ranging in concentration from 6 mM to 100 mM. The percent racemization of 80 mM L-proline as a function of pH was determined using 0.2 M sodium acetate, potassium phosphate and Tris-HCl buffers containing 25 mM β-mercaptoethanol; reactions were incubated for 30 min at 37° C. as described above. All reagents and inhibitors were purchased from Sigma.

The mark [3] stands for this setting: spleen lymphocytes, up to 72 h culture.
Setting [4] is: pH 6, 3 μg rTcPA45, 30 min at 37° C.

B1: rTcPA45: recombinant T. cruzi polyclonal activator 45, B-cell mitogen and proline racemase, codons 30-423 with C-terminal 6×His tag, from E. coli (protein)
chain: RTGQEKLLFDQKYKIIKGEKKEKKKNQRANRREHQQKREIMRFKKSFTCIDMHTEGEAARIVTSGLPHIPGSNMAEKKAYLQENMDYLRRGIMLEPRGHDDMFGAFLFDPIEEGADLGMVFMDTGGYLNMCGHNSIAAVTAAVETGIVSVPAKATNVPVVLDTPAGLVRGTAHLQSGTESEVSNASIINVPSFLYQQDVVVVLPKPYGEVRVDIAFGGNFFAIVPAEQLGIDISVQNLSRLQEAGELLRTEINRSVKVQHPQLPHINTVDCVEIYGPPTNPEANYKNVVIFGNRQADRSPCGTGTSAKMATLYAKGQLRIGETFVYESILGSLFQGRVLGEERIPGVKVPVTKDAEEGMLVVTAEITGKAFIMGFNTMLFDPTDPFKNGFTLKQ
modifications: left off: small tags and cut ends
Take B1: in series [1] (inactivated by being heated or by long storage at 4° C.), the “mitogenic activity of inactivated rTcPA45” value is listed as “abolished”. Also, in series [1] (setting [3]), the “concentration at which proliferation peaks (bell-shaped dose-response curve)” value came out at 50 µg/mL and the “concentration from which proliferation starts (bell-shaped dose-response curve)” value was 0.8 µg/mL. In series [2] (80 mM L-proline, buffers pH 4.0-8.2), the “pH of maximal proline racemase activity” value amounted to 6. In addition, the “enzyme stability to heating” value in series [2] (10 min heating at 80° C.) is reported as “inactivated”. For the same molecule, in series [2] (setting [4]), the “racemisation of L- and D-proline substrates” value was “racemises”; the “racemisation of L- or D-hydroxy-proline and other natural L-amino acids” value is listed as “not”. Also, in series [2] (tested between 27° C. and 47° C.), the “optimal temperature for enzymatic activity” value came to 37 °C.

The values are drawn from patent publication US7732563B2, “Cloning, sequencing and expression of a gene encoding an eukaryotic amino acid racemase, and diagnostic, therapeutic, and vaccination applications of parasite and viral mitogens” (priority 1999, dated 2010).
